Consider 14 molecules from patent US20050008615A1 (GlaxoSmithKline, published 2005).

Assay [1] addresses T1, IL-18 receptor alpha chain (UniProt Q13478 19-329, limits assumed).
T1 construct: also called IL-18Rα; IL-18 Rα
T1 sequence (looked up): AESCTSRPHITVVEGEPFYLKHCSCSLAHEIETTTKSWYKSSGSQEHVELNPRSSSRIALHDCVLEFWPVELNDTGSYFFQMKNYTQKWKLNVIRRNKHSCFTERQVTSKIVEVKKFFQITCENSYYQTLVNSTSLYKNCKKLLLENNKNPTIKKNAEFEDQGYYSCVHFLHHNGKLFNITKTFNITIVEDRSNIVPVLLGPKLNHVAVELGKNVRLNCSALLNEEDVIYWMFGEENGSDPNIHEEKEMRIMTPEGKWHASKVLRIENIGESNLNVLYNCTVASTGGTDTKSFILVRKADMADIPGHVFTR
Briefly: SPR (BIAcore).

Assay [2] has as its target T2, IL-18 receptor (heterodimeric surface receptor composed of α- and β-chains) on KG-1 cells. Put plainly: cell-based or functional assay.
The target in assay [3] is T2, IL-18 receptor (heterodimeric surface …). Put plainly: cell-based or functional assay. The source holds these as a separate data set.

“And” between values parts separate entries of the source, which are not always exact repeats. Equal values may be shown once.

B1: human IL-18 C38S, C68D, D157C (SEQ ID NO:8) (ligand)
chain: YFGKLESKLSVIRNLNDQVLFIDQGNRPLFEDMTDSDSRDNAPRTIFIISMYKDSQPRGMAVTISVKDEKISTLSCENKIISFKEMNPPDNIKDTKSDIIFFQRSVPGHDNKMQFESSSYEGYFLACEKERDLFKLILKKEDELGDRSIMFTVQNEC
notes: Non-pegylated substitution mutant; also called IL-18 C157 (C38S, C68D, D157C)
The term Kd denotes the equilibrium constant for the complex coming apart. Lower therefore signals tighter binding. As for B1, the dissociation constant (Kd) in assay [1] came to 0.196 µM. In assay [2], the “NF-κB bioassay, reduction in potency relative to the native IL-18” value is around 10 fold. Also, in assay [3], the “NF-κB KG-1 EC50” value turned out to be 0.004 mg/L and the “NF-κB KG-1 EC50 (ng/ml), av.” value amounted to 4 ng/mL.

B2: human IL-18 C38S, C68D, L144C (SEQ ID NO:7) monopegylated at C144 with 40K PEG (ligand)
chain: YFGKLESKLSVIRNLNDQVLFIDQGNRPLFEDMTDSDSRDNAPRTIFIISMYKDSQPRGMAVTISVKDEKISTLSCENKIISFKEMNPPDNIKDTKSDIIFFQRSVPGHDNKMQFESSSYEGYFLACEKERDLFKLILKKEDECGDRSIMFTVQNED
modifications: methoxy polyethylene glycol maleimide, 40,000 Da, on Cys 144
notes: also called IL-18 C144PEG40K
In assay [1], B2 had a Kd of 5.35 µM. Moreover, in assay [3], the “NF-κB KG-1 EC50” value is 0.271 mg/L and 0.33 mg/L; the “NF-κB KG-1 EC50 (ng/ml), av.” value was found to be 300 ng/mL.

B3: human IL-18 C38S, C68D, L144C (SEQ ID NO:7) monopegylated at C144 with 20K PEG (ligand)
chain: YFGKLESKLSVIRNLNDQVLFIDQGNRPLFEDMTDSDSRDNAPRTIFIISMYKDSQPRGMAVTISVKDEKISTLSCENKIISFKEMNPPDNIKDTKSDIIFFQRSVPGHDNKMQFESSSYEGYFLACEKERDLFKLILKKEDECGDRSIMFTVQNED
modifications: methoxy polyethylene glycol maleimide, 20,000 Da, on Cys 144
notes: also called IL-18 C144PEG20K
In assay [1], B3 gave a Kd of 2.69 µM. Moreover, in assay [3], the “NF-κB KG-1 EC50” value was 0.058 mg/L and 0.066 mg/L and 0.042 mg/L; the “NF-κB KG-1 EC50 (ng/ml), av.” value was 55.3 ng/mL.

B4: human IL-18 C38S, C68S, L144C (SEQ ID NO:9) monopegylated at C144 with 20K PEG (ligand)
chain: YFGKLESKLSVIRNLNDQVLFIDQGNRPLFEDMTDSDSRDNAPRTIFIISMYKDSQPRGMAVTISVKSEKISTLSCENKIISFKEMNPPDNIKDTKSDIIFFQRSVPGHDNKMQFESSSYEGYFLACEKERDLFKLILKKEDECGDRSIMFTVQNED
modifications: methoxy polyethylene glycol maleimide, 20,000 Da, on Cys 144
notes: also called IL-18 C144PEG20K
B4 registered a Kd in assay [1] of 5.19 µM. In assay [3], the “NF-κB KG-1 EC50” value is 0.071 mg/L and 0.092 mg/L; the “NF-κB KG-1 EC50 (ng/ml), av.” value was determined as 81.5 ng/mL.

B5: human IL-18 C38S, C68S, L144C (SEQ ID NO:9) (ligand)
chain: YFGKLESKLSVIRNLNDQVLFIDQGNRPLFEDMTDSDSRDNAPRTIFIISMYKDSQPRGMAVTISVKSEKISTLSCENKIISFKEMNPPDNIKDTKSDIIFFQRSVPGHDNKMQFESSSYEGYFLACEKERDLFKLILKKEDECGDRSIMFTVQNED
notes: Non-pegylated substitution mutant; also called IL-18 C144 (C38S, C68S, L144C)
B5 registered a Kd in assay [1] of 0.534 µM. Also, the “NF-κB KG-1 EC50 (ng/ml), av.” value in assay [3] turned out to be 2.6 ng/mL.

B6: human IL-18 C38S, C68S, D157C (SEQ ID NO:10) monopegylated at C157 with 20K PEG (ligand)
chain: YFGKLESKLSVIRNLNDQVLFIDQGNRPLFEDMTDSDSRDNAPRTIFIISMYKDSQPRGMAVTISVKSEKISTLSCENKIISFKEMNPPDNIKDTKSDIIFFQRSVPGHDNKMQFESSSYEGYFLACEKERDLFKLILKKEDELGDRSIMFTVQNEC
modifications: methoxy polyethylene glycol maleimide, 20,000 Da, on Cys 157
notes: also called IL-18 C157PEG20K; 157C-20K
B6 yielded a Kd in assay [1] of 5.5 µM. In assay [3], the “NF-κB KG-1 EC50” value is 0.049 mg/L and 0.059 mg/L; the “NF-κB KG-1 EC50 (ng/ml), av.” value stood at 54 ng/mL.

B7: human IL-18 C38S, C68S, L144C (SEQ ID NO:9) monopegylated at C144 with 30K PEG (ligand)
chain: YFGKLESKLSVIRNLNDQVLFIDQGNRPLFEDMTDSDSRDNAPRTIFIISMYKDSQPRGMAVTISVKSEKISTLSCENKIISFKEMNPPDNIKDTKSDIIFFQRSVPGHDNKMQFESSSYEGYFLACEKERDLFKLILKKEDECGDRSIMFTVQNED
modifications: methoxy polyethylene glycol maleimide, 30,000 Da, on Cys 144
notes: also called IL-18 C144PEG30K
Consider B7, for which the Kd in assay [1] amounted to 8.26 µM. Besides, in assay [3], the “NF-κB KG-1 EC50” value came to 0.044 mg/L and the “NF-κB KG-1 EC50 (ng/ml), av.” value is 44 ng/mL.

B8: human IL-18 C38S, C68S, D157C (SEQ ID NO:10) monopegylated at C157 with 30K PEG (ligand)
chain: YFGKLESKLSVIRNLNDQVLFIDQGNRPLFEDMTDSDSRDNAPRTIFIISMYKDSQPRGMAVTISVKSEKISTLSCENKIISFKEMNPPDNIKDTKSDIIFFQRSVPGHDNKMQFESSSYEGYFLACEKERDLFKLILKKEDELGDRSIMFTVQNEC
modifications: methoxy polyethylene glycol maleimide, 30,000 Da, on Cys 157
notes: also called IL-18 C157PEG30K; 157C-30K
B8 came in with an equilibrium dissociation constant (Kd) in assay [1] of 6.34 µM. In assay [3], the “NF-κB KG-1 EC50” value is 0.047 mg/L and the “NF-κB KG-1 EC50 (ng/ml), av.” value worked out at 47 ng/mL.

B9: human IL-18 C38S, C68D, D157C (SEQ ID NO:8) monopegylated at C157 with 30K PEG (ligand)
chain: YFGKLESKLSVIRNLNDQVLFIDQGNRPLFEDMTDSDSRDNAPRTIFIISMYKDSQPRGMAVTISVKDEKISTLSCENKIISFKEMNPPDNIKDTKSDIIFFQRSVPGHDNKMQFESSSYEGYFLACEKERDLFKLILKKEDELGDRSIMFTVQNEC
modifications: methoxy polyethylene glycol maleimide, 30,000 Da, on Cys 157
notes: as for B8
As to B9, in assay [1], the affinity, expressed as Kd, was 5.33 µM. Further, in assay [3], the “NF-κB KG-1 EC50” value was 0.094 mg/L and 0.043 mg/L; the “NF-κB KG-1 EC50 (ng/ml), av.” value amounted to 68.5 ng/mL.

B10: human IL-18 C38S, C68D, L144C (SEQ ID NO:7) monopegylated at C144 with 30K PEG (ligand)
chain: YFGKLESKLSVIRNLNDQVLFIDQGNRPLFEDMTDSDSRDNAPRTIFIISMYKDSQPRGMAVTISVKDEKISTLSCENKIISFKEMNPPDNIKDTKSDIIFFQRSVPGHDNKMQFESSSYEGYFLACEKERDLFKLILKKEDECGDRSIMFTVQNED
modifications: methoxy polyethylene glycol maleimide, 30,000 Da, on Cys 144
notes: also called IL-18 C144PEG30K
As for B10, binding in assay [1] was put at a Kd of 4.26 µM. For the same molecule, in assay [3], the “NF-κB KG-1 EC50” value came to 0.038 mg/L and the “NF-κB KG-1 EC50 (ng/ml), av.” value came out at 38 ng/mL.

B11: human IL-18 C38S, C68D, D157C (SEQ ID NO:8) monopegylated at C157 with 20K PEG (ligand)
chain: YFGKLESKLSVIRNLNDQVLFIDQGNRPLFEDMTDSDSRDNAPRTIFIISMYKDSQPRGMAVTISVKDEKISTLSCENKIISFKEMNPPDNIKDTKSDIIFFQRSVPGHDNKMQFESSSYEGYFLACEKERDLFKLILKKEDELGDRSIMFTVQNEC
modifications: methoxy polyethylene glycol maleimide, 20,000 Da, on Cys 157
notes: as for B6
For the molecule B11, in assay [1], binding was put at a Kd of 5.16 µM. The “NF-κB KG-1 EC50 (ng/ml), av.” value in assay [3] came out at 37.3 ng/mL.

B12: human IL-18 C38S, C68S, D157C (SEQ ID NO:10) (ligand)
chain: YFGKLESKLSVIRNLNDQVLFIDQGNRPLFEDMTDSDSRDNAPRTIFIISMYKDSQPRGMAVTISVKSEKISTLSCENKIISFKEMNPPDNIKDTKSDIIFFQRSVPGHDNKMQFESSSYEGYFLACEKERDLFKLILKKEDELGDRSIMFTVQNEC
notes: Non-pegylated substitution mutant; also called IL-18 C157 (C38S, C68S, D157C)
B12 returned a Kd in assay [1] of 0.41 µM. Also, in assay [3], the “NF-κB KG-1 EC50 (ng/ml), av.” value came to 2 ng/mL.

B13: human IL-18 C38S, C68D, L144C (SEQ ID NO:7) (ligand)
chain: YFGKLESKLSVIRNLNDQVLFIDQGNRPLFEDMTDSDSRDNAPRTIFIISMYKDSQPRGMAVTISVKDEKISTLSCENKIISFKEMNPPDNIKDTKSDIIFFQRSVPGHDNKMQFESSSYEGYFLACEKERDLFKLILKKEDECGDRSIMFTVQNED
notes: Non-pegylated substitution mutant; also called IL-18 C144 (C38S, C68D, L144C)
In the case of B13, binding in assay [1] was put at a Kd of 0.222 µM. In assay [2], the “NF-κB bioassay, reduction in potency relative to the native IL-18” value is around 10 fold. Besides, in assay [3], the “NF-κB KG-1 EC50” value was 0.0035 mg/L and 0.0016 mg/L; the “NF-κB KG-1 EC50 (ng/ml), av.” value amounted to 2.6 ng/mL.

B14: human IL-18 C38S, C68D, D157C (SEQ ID NO:8) monopegylated at C157 with 40K PEG (ligand)
chain: YFGKLESKLSVIRNLNDQVLFIDQGNRPLFEDMTDSDSRDNAPRTIFIISMYKDSQPRGMAVTISVKDEKISTLSCENKIISFKEMNPPDNIKDTKSDIIFFQRSVPGHDNKMQFESSSYEGYFLACEKERDLFKLILKKEDELGDRSIMFTVQNEC
modifications: methoxy polyethylene glycol maleimide, 40,000 Da, on Cys 157
notes: also called IL-18 C157PEG40K; 157C-40K
For the molecule B14, in assay [1], the Kd turned out to be 22.9 µM. Besides, the “NF-κB KG-1 EC50 (ng/ml), av.” value in assay [3] came out at 278 ng/mL.
